From US20020045591A1, “Methods and therapeutic compositions for treating cancer” (priority 1998, published 2002)

Target: Endogenous β-catenin of SW480 human colon carcinoma cells (human) (UniProt P35222)
Experiment: cell-based or functional assay

Chain of Endogenous β-catenin of SW480 human colon carcinoma cells (human) (P35222 2-781): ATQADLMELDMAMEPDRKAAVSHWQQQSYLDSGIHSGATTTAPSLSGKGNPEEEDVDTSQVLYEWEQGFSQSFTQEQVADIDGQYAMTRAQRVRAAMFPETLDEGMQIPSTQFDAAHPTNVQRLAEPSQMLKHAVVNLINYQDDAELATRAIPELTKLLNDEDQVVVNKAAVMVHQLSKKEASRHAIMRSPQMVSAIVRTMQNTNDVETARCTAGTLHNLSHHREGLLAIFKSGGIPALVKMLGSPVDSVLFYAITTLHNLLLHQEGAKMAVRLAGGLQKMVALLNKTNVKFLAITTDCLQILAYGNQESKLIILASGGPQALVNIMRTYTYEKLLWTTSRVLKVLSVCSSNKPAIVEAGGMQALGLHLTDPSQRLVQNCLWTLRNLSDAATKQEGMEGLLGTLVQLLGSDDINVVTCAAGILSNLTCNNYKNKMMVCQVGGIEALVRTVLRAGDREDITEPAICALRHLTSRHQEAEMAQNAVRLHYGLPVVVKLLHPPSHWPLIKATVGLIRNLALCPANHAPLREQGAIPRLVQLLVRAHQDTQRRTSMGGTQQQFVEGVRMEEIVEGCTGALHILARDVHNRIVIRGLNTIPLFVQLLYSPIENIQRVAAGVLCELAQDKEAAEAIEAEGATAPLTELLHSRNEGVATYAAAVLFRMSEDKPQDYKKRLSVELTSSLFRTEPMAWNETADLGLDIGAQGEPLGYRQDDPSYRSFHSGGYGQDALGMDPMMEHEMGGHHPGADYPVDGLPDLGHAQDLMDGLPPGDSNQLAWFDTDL

Substance	inhibition of luciferase activity (LEF-1-driven transactivation) in SW480 cells [%]	inhibition of TOPFLASH-responsive transcription (luciferase) in SW480 cells [%]
Cytoplasmic tail of mouse E-cadherin (amino acids 735-884) fused to the C-terminus of GFP (from UniProt P09803 720-869)	75	–
GFP-E72 (C-terminal 72 amino acids of mouse E-cadherin, residues 813-884, fused to the C-terminus of GFP) (from UniProt P09803 798-869)	60	–

Results, then the substance that gave them:

inhibition of luciferase activity (LEF-1-driven transactivation) in SW480 cells [%]	inhibition of TOPFLASH-responsive transcription (luciferase) in SW480 cells [%]	Substance
80	–	Cytoplasmic tail of N-cadherin (amino acids 752-912) fused to the C-terminus of GFP (from UniProt B2KI42 746-906)
70	–	GFP-N71 (C-terminal 71 amino acids of N-cadherin, residues 842-912, fused to the C-terminus of GFP) (from UniProt B0KW95 836-906)
–	50	IL2R/N-cadherin chimera (extracellular and transmembrane domains of IL2Rα fused to the intracellular domain of N-cadherin, amino acids 752-912)
